Publication PMC9371972, “Cryo-EM structure of the human CST–Polα/primase complex in a recruitment state” (Nature Structural & Molecular Biology, 2022)

T1: His6-MBP-CTC1–STN1–TEN1 (human, UniProt Q2NKJ3 1-1217; Q9H668 1-368; Q86WV5 1-123, RED-tris-NTA second-generation dye on the His6 tag)
T1 chain 1: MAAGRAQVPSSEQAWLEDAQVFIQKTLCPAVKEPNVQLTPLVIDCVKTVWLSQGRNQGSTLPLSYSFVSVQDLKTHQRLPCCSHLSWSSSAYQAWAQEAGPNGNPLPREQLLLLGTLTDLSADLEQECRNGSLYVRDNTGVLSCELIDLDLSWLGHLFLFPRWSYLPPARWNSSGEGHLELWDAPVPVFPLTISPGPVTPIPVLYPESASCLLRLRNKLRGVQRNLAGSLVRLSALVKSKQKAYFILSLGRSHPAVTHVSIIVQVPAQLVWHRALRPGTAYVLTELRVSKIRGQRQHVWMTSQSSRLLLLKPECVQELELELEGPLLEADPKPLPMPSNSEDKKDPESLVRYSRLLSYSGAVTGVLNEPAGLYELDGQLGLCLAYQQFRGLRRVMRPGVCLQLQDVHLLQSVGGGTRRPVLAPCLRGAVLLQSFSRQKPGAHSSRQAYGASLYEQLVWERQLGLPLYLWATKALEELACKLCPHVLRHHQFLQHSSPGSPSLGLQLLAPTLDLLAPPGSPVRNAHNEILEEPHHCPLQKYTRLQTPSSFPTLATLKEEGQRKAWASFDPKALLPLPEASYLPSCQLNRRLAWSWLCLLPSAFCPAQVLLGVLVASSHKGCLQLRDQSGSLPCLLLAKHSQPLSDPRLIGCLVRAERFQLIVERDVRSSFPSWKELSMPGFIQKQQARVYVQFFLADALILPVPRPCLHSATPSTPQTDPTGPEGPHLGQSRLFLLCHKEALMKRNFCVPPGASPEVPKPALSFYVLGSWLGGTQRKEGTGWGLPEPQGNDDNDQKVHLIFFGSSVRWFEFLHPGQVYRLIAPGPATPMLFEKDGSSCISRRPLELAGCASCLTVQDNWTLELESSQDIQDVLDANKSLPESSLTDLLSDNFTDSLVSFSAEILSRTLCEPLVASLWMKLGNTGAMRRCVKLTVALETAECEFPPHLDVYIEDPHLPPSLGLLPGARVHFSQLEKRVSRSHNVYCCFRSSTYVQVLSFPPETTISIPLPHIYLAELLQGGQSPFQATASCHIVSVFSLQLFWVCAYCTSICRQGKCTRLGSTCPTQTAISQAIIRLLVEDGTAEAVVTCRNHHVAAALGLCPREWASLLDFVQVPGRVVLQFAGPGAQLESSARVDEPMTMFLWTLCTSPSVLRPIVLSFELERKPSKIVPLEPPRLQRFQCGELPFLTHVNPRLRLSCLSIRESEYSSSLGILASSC
T1 chain 2: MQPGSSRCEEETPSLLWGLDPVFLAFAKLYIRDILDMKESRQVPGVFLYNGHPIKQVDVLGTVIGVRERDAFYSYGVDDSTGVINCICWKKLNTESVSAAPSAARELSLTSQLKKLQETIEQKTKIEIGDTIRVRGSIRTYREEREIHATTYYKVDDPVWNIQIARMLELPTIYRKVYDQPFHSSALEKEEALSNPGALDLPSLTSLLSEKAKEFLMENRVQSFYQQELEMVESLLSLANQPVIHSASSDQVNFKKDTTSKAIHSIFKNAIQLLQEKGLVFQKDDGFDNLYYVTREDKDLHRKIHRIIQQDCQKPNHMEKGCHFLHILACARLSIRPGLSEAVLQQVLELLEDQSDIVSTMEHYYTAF
T1 chain 3: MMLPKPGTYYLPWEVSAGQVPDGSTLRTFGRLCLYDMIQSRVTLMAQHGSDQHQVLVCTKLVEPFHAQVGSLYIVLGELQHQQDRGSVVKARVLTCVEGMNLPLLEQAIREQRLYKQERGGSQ


What was measured:
[1] = target: CTC1–STN1–TEN1 (CST) complex (human) (UniProt Q2NKJ3); assay: cryo-EM structure; CST and Polα/primase (PP^FL or PP^ΔN) mixed equimolar (1.5 μM each) with (GGTTAG)3 ssDNA, cross-linked by GraFix (glutaraldehyde, glycerol gradient), 20 mM HEPES pH 7.5, 150 mM NaCl, 10 mM MgCl2, 0.5 mM TCEP
[2] = target: T2, full-length Polα/primase (POLA1^FL/POLA2/PRIM1/PRIM2) (human, UniProt P09884 1-1462; Q14181 1-598; P49642 1-420; P49643 1-509); assay: SEC; purified proteins mixed (PP^FL and CST equimolar; CST with twofold molar excess of His6-MBP-POLA1^N), 1 h at 4 °C, HiLoad Superdex 200 16/600 PG, 20 mM HEPES pH 7.5, 150 mM NaCl, 0.5 mM TCEP, 5% glycerol; conditions: both partners purified
T2 construct: human POLA2; human PRIM1; human PRIM2; The methods describe no tag cleavage for this complex (PreSc site after MBP, TEV site after StrepII); also called PP^FL; DNA polymerase α–primase; source: Tni insect cells (baculovirus), purified (Ni-NTA, RESOURCE Q, SEC); copies: + + +
T2 sequence (Q14181 whole entry, chain 2 of 3): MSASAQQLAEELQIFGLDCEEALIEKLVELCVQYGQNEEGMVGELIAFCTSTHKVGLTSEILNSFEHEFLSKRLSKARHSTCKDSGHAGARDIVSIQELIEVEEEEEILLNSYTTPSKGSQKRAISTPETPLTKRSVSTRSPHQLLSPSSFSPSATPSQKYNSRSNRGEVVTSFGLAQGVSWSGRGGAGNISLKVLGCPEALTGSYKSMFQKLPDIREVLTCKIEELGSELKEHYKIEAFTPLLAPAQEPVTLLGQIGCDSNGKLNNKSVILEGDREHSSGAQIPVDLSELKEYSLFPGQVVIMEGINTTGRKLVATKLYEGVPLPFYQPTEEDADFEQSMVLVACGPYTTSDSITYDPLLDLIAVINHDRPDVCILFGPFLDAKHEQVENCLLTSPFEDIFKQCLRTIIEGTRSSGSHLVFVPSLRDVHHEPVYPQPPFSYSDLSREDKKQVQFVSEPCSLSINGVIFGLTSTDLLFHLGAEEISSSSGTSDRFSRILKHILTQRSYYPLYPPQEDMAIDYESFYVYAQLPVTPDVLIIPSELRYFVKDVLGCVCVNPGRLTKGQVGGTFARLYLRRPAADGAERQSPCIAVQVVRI
T2 sequence (P49642 whole entry, chain 3 of 3): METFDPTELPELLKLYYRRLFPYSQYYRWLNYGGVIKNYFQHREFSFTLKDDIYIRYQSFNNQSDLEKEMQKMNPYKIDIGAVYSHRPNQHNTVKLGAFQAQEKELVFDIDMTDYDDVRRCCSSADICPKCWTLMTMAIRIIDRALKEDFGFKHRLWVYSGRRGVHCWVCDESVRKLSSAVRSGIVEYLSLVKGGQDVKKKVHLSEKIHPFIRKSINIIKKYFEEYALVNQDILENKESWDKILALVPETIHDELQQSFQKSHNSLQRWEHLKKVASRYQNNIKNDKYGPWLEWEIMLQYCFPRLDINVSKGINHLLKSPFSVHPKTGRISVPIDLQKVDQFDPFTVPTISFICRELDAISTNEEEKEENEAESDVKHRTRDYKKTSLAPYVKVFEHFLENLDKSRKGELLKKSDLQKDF
T2 sequence (P49643 whole entry, chain 4 of 3): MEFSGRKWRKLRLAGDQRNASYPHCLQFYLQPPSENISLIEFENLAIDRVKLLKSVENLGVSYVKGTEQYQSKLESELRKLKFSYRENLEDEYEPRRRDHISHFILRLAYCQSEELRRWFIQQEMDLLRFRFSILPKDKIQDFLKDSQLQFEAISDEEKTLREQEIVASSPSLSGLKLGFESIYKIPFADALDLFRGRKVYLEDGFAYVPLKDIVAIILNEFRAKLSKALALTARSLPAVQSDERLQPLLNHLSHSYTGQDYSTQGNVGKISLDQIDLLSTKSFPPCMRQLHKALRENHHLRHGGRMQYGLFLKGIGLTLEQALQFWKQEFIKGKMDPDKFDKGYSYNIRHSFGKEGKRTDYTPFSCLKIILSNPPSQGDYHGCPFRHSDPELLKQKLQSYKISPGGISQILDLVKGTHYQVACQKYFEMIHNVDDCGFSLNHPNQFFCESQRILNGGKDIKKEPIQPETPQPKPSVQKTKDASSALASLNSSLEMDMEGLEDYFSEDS

His6-MBP-CTC1–STN1–TEN1 [3] = target: T1, His6-MBP-CTC1–STN1–TEN1; assay: MST; binding event 1, independent experiment 1
His6-MBP-CTC1–STN1–TEN1 [4] = target: T1, His6-MBP-CTC1–STN1–TEN1; assay: MST; binding event 1, independent experiment 2
His6-MBP-CTC1–STN1–TEN1 [5] = target: T1, His6-MBP-CTC1–STN1–TEN1; assay: MST; binding event 1, independent experiment 3
His6-MBP-CTC1–STN1–TEN1 [6] = target: T1, His6-MBP-CTC1–STN1–TEN1; assay: MST; binding event 2 (second site), independent experiment 1
His6-MBP-CTC1–STN1–TEN1 [7] = target: T1, His6-MBP-CTC1–STN1–TEN1; assay: MST; binding event 2 (second site), independent experiment 2
His6-MBP-CTC1–STN1–TEN1 [8] = target: T1, His6-MBP-CTC1–STN1–TEN1; assay: MST; binding event 2 (second site), independent experiment 3
His6-MBP-CTC1–STN1–TEN1 [9] = target: T3, His6-MBP-CTC1–STN1–TEN1 (human, UniProt Q2NKJ3 1-1217; Q9H668 1-368; Q86WV5 1-123, RED-tris-NTA second-generation dye on the His6 tag); assay: MST; 50 nM RED-tris-NTA-labeled His6-MBP-CST with serial dilutions of unlabeled POLA1^CTD constructs; room temperature; 20 mM HEPES pH 7.5, 150 mM NaCl, 5 mM DTT, 0.05% Tween-20; CRL^WT data split into two binding events; conditions: both partners purified
T3 construct: human CTC1; human STN1; human TEN1; A PreScission site lies between MBP and CTC1; also called His6-MBP-CST; fluorescently labeled CST; source: Tni insect cells (baculovirus), purified (Ni-NTA, heparin, SEC; protease-cleavage step omitted); not shown: His6, N-terminal, kept; MBP, N-terminal, kept; copies: + +

Molecule	stoichiometry N [1]	binding result [2]	Kd (His6-MBP-CTC1–STN1–TEN1 [3]) [µM]	Kd (His6-MBP-CTC1–STN1–TEN1 [4]) [µM]	Kd (His6-MBP-CTC1–STN1–TEN1 [5]) [µM]	Kd (His6-MBP-CTC1–STN1–TEN1 [6]) [µM]	Kd (His6-MBP-CTC1–STN1–TEN1 [7]) [µM]	Kd (His6-MBP-CTC1–STN1–TEN1 [8]) [µM]	KD of binding event 1 (His6-MBP-CTC1–STN1–TEN1 [9]) [µM]	KD of binding event 2 (His6-MBP-CTC1–STN1–TEN1 [9]) [µM]
full-length Polα/primase (POLA1^FL/POLA2/PRIM1/PRIM2), P09884 1-1462; Q14181 1-598; P49642 1-420; P49643 1-509	1									
CTC1–STN1–TEN1 (CST) complex (complex, human, human CTC1; human STN1; human TEN1; Expressed from pBIG1a(His6-MBP-PreSc-CTC1/STN1/TEN1); tag removed with rhinovirus 3C protease; source: Tni insect cells (baculovirus), purified (Ni-NTA, 3C protease cleavage, heparin, SEC); not shown: His6, N-terminal, cleaved; MBP, N-terminal, cleaved; copies: + +) chain 1: MAAGRAQVPSSEQAWLEDAQVFIQKTLCPAVKEPNVQLTPLVIDCVKTVWLSQGRNQGSTLPLSYSFVSVQDLKTHQRLPCCSHLSWSSSAYQAWAQEAGPNGNPLPREQLLLLGTLTDLSADLEQECRNGSLYVRDNTGVLSCELIDLDLSWLGHLFLFPRWSYLPPARWNSSGEGHLELWDAPVPVFPLTISPGPVTPIPVLYPESASCLLRLRNKLRGVQRNLAGSLVRLSALVKSKQKAYFILSLGRSHPAVTHVSIIVQVPAQLVWHRALRPGTAYVLTELRVSKIRGQRQHVWMTSQSSRLLLLKPECVQELELELEGPLLEADPKPLPMPSNSEDKKDPESLVRYSRLLSYSGAVTGVLNEPAGLYELDGQLGLCLAYQQFRGLRRVMRPGVCLQLQDVHLLQSVGGGTRRPVLAPCLRGAVLLQSFSRQKPGAHSSRQAYGASLYEQLVWERQLGLPLYLWATKALEELACKLCPHVLRHHQFLQHSSPGSPSLGLQLLAPTLDLLAPPGSPVRNAHNEILEEPHHCPLQKYTRLQTPSSFPTLATLKEEGQRKAWASFDPKALLPLPEASYLPSCQLNRRLAWSWLCLLPSAFCPAQVLLGVLVASSHKGCLQLRDQSGSLPCLLLAKHSQPLSDPRLIGCLVRAERFQLIVERDVRSSFPSWKELSMPGFIQKQQARVYVQFFLADALILPVPRPCLHSATPSTPQTDPTGPEGPHLGQSRLFLLCHKEALMKRNFCVPPGASPEVPKPALSFYVLGSWLGGTQRKEGTGWGLPEPQGNDDNDQKVHLIFFGSSVRWFEFLHPGQVYRLIAPGPATPMLFEKDGSSCISRRPLELAGCASCLTVQDNWTLELESSQDIQDVLDANKSLPESSLTDLLSDNFTDSLVSFSAEILSRTLCEPLVASLWMKLGNTGAMRRCVKLTVALETAECEFPPHLDVYIEDPHLPPSLGLLPGARVHFSQLEKRVSRSHNVYCCFRSSTYVQVLSFPPETTISIPLPHIYLAELLQGGQSPFQATASCHIVSVFSLQLFWVCAYCTSICRQGKCTRLGSTCPTQTAISQAIIRLLVEDGTAEAVVTCRNHHVAAALGLCPREWASLLDFVQVPGRVVLQFAGPGAQLESSARVDEPMTMFLWTLCTSPSVLRPIVLSFELERKPSKIVPLEPPRLQRFQCGELPFLTHVNPRLRLSCLSIRESEYSSSLGILASSC chain 2: MQPGSSRCEEETPSLLWGLDPVFLAFAKLYIRDILDMKESRQVPGVFLYNGHPIKQVDVLGTVIGVRERDAFYSYGVDDSTGVINCICWKKLNTESVSAAPSAARELSLTSQLKKLQETIEQKTKIEIGDTIRVRGSIRTYREEREIHATTYYKVDDPVWNIQIARMLELPTIYRKVYDQPFHSSALEKEEALSNPGALDLPSLTSLLSEKAKEFLMENRVQSFYQQELEMVESLLSLANQPVIHSASSDQVNFKKDTTSKAIHSIFKNAIQLLQEKGLVFQKDDGFDNLYYVTREDKDLHRKIHRIIQQDCQKPNHMEKGCHFLHILACARLSIRPGLSEAVLQQVLELLEDQSDIVSTMEHYYTAF chain 3: MMLPKPGTYYLPWEVSAGQVPDGSTLRTFGRLCLYDMIQSRVTLMAQHGSDQHQVLVCTKLVEPFHAQVGSLYIVLGELQHQQDRGSVVKARVLTCVEGMNLPLLEQAIREQRLYKQERGGSQ		binds								
POLA1^CTD with the wild-type CRL (domain or fragment, human, UniProt P09884 1265-1462, looked up, also called CRL^WT; source: E. coli Rosetta(DE3), purified (Ni-NTA, Ulp1 cleavage, reverse Ni-NTA, SEC); not shown: His6, N-terminal, cleaved; Smt3, N-terminal, cleaved) AQLTDEEKYRDCERFKCPCPTCGTENIYDNVFDGSGTDMEPSLYRCSNIDCKASPLTFTVQLSNKLIMDIRRFIKKYYDGWLICEEPTCRNRTRHLPLQFSRTGPLCPACMKATLQPEYSDKSLYTQLCFYRYIFDAECALEKLTTDHEKDKLKKQFFTPKVLQDYRKLKNTAEQFLSRSGYSEVNLSKLFAGCAVKS			1.4	13	14	56	216	156	~3.3	~122
POLA1^CTD with the CRL swapped for a GGSGGS-linker (domain or fragment, human, linker in place of the CRL (residues 1403-1422); also called CRL^GGSGGS; source: E. coli Rosetta(DE3), purified (Ni-NTA, Ulp1 cleavage, reverse Ni-NTA, SEC); not shown: His6, N-terminal, cleaved; Smt3, N-terminal, cleaved) AQLTDEEKYRDCERFKCPCPTCGTENIYDNVFDGSGTDMEPSLYRCSNIDCKASPLTFTVQLSNKLIMDIRRFIKKYYDGWLICEEPTCRNRTRHLPLQFSRTGPLCPACMKATLQPEYSDKSLYTQLCFYRYIFDAEGGSGGSTPKVLQDYRKLKNTAEQFLSRSGYSEVNLSKLFAGCAVKS						133	79	82		~96
POLA1^CTD with the CRL swapped for the S. pombe short loop (domain or fragment, human | S. pombe, short loop of the S. pombe POLA1 orthologue, in place of the human CRL (residues 1400-1424); also called CRL^(S. pombe); source: E. coli Rosetta(DE3), purified (Ni-NTA, Ulp1 cleavage, reverse Ni-NTA, SEC); not shown: His6, N-terminal, cleaved; Smt3, N-terminal, cleaved) AQLTDEEKYRDCERFKCPCPTCGTENIYDNVFDGSGTDMEPSLYRCSNIDCKASPLTFTVQLSNKLIMDIRRFIKKYYDGWLICEEPTCRNRTRHLPLQFSRTGPLCPACMKATLQPEYSDKSLYTQLCFYRYIFQTTTGATKVLQDYRKLKNTAEQFLSRSGYSEVNLSKLFAGCAVKS						134	75	77		~88
